B1: unnamed (parent)
chain 1: DKEWILQKIYEIMRLLDELGHAEASMRVSDLIYEF
chain 2: not shown

The variants in this test derive from B1. The settings on record: with partner chain of the complex shown; 12 nM peptide; read off a plot.
For the variant chain 1 Y10A, the screen value came to 18%. Consider chain 1 I5A, for which the screen value worked out at 3%.

With chain 1 S25A, the screen value amounted to 9%. On to chain 1 E23A, for which the screen value was determined as 50%.

On to chain 1 L16A, for which the screen value amounted to 23%. Consider chain 1 I9A, for which the screen value was found to be 3%. In the case of chain 1 Q7A, the screen value is 19%. For chain 1 Y33A the value was 86%. As to chain 1 D30A, the screen value was determined as 96%.

As for chain 1 L19A, the screen value came out at 1.7%.

chain 1 G20A: the screen value is 66%. The figure for chain 1 E11A is 26%; for chain 1 E3A it is 4.5%; for chain 1 M13A it is 92%.

For chain 1 L15A, the screen value stood at 4.5%. The figure for chain 1 S29A is 49%.

Turning to chain 1 K2A, the screen value amounted to 47%. Take chain 1 K8A: the screen value came out at 19%.

Take chain 1 H21A: the screen value was found to be 31%.

Turning to chain 1 D1A, the screen value worked out at 4.5%. In the case of chain 1 E34A, the screen value came out at 20%. For chain 1 V28A the value was 8.5%; for chain 1 I32A, 46%; for chain 1 E18A, 1%.

In the case of chain 1 I12A, the screen value worked out at 7%. The figure for chain 1 L31A is 18%.

For the variant chain 1 R27A, the screen value came to 3%.

For chain 1 M26A, the screen value amounted to 67%.

For the variant chain 1 D17A, the screen value was 14%. The figure for chain 1 R14A is 24%; for chain 1 L6A it is 69%; for chain 1 W4A it is 3.7%.

In the case of chain 1 F35A, the screen value was 23%.

The values above are taken from publication PMC9181698.
